Source: PMC9419707 (Nature, 2022)

Target: T1, His6–GFP–POU2F3 (UniProt Q9UKI9 1-436)
T1 sequence (looked up): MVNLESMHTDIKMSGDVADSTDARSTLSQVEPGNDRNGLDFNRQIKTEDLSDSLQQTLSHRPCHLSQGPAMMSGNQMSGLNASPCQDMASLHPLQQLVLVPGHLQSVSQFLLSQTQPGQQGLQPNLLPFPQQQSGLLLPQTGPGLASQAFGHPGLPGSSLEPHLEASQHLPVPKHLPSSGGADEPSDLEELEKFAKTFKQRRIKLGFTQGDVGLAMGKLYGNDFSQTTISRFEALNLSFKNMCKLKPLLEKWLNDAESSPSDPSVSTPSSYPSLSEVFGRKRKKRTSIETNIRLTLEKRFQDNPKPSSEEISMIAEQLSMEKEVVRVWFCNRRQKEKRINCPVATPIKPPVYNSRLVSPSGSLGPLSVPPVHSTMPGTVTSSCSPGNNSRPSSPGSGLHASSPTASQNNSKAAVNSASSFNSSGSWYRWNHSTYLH
Test: SEC

binding result: binds
B1: Strep2SUMO–OCA-B (natural protein, UniProt Q16633 1-256, looked up)
chain: MLWQKPTAPEQAPAPARPYQGVRVKEPVKELLRRKRGHASSGAAPAPTAVVLPHQPLATYTTVGPSCLDMEGSVSAVTEEAALCAGWLSQPTPATLQPLAPWTPYTEYVPHEAVSCPYSADMYVQPVCPSYTVVGPSSVLTYASPPLITNVTTRSSATPAVGPPLEGPEHQAPLTYFPWPQPLSTLPTSTLQYQPPAPALPGPQFVQLPISIPEPVLQDMEDPRRAASSLTIDKLLLEEEDSDAYALNHTLSVEGF
